According to patent US20110263824A1:

Biological target: human serum protein
Assay: human serum (1:800) adsorbed to TM2 variant-immobilized magnetic beads, HRP-labeled anti-human IgG detection

- Non-specific binding to serum protein (A450): 0.56 A450
Substance: TM2 D40NR104E
